This data set is described as follows: soluble on expression in E. coli; label from the status in PepcDB or PDB records.
Take “MPVGPPVPPKPSTPIMNGERLGEYGVGGHIGNGDVVPERRGILPASLREKINQKKELEGRATPSIEPDLVGRDRYDKASRCFSYVPAKSMQEAFERPRRTSFSRAIEKRENSVENVSQEEVARTEIPQSYQQNDISTPAKWDEQVEDAKQSALLEELARAPSAMQHNYWGNGEVDNVQVVDQAQRAVITPTSTLQRRPKPPARSGSYRTLNDDAYCSDMDELCDPEYYLNYNSNTAPLPPPRRQEQHAGTRSVQLPRKKMNFDAVTDPLDDVLESTKRLGSAYSVGDVRGGQQQQQEQHNASNDFNFSNTLNNTPTDYRQHYRNRNCQSVTTPRNHHFSTPSREQEADAADTWLSGKLKKVRSKRDIDPDIVRRRTQEKMLLEELKDSAANNDENQHNLPNGHARGAGLQNIDPLAEFRREEERLRNTRSPYGEERWRGRMRGKPPTPPPRESSASPVNSLPRGTPAHHMDRQRHNQSVPLPMHHRQFDEDFDVNSLFNFSHDPRQQSTTLERGGRSLSRGARIQDAYYASQQDLSANNRFNSGQERVAAAIYRAETAHRDMYASGTINRAETPGRYFPENSAVLERSSTPSFPVSRATPLPFHPLLYNNGERGGSGHAAGGGGGGHNGYSTMNNRSASPRLFGGSSTLSRRSSVNSVDILSEILILQTSYLSCSYILLYLWNFYSLAFASNFKTMSDTATTSTTVVIHLKRSNHDDASASATTAQLQQRSRYCDVSLASSEESSDLSDAEEKDDLIRRTITSSSKDTMEEGDDDDEEEFDDVVMEEDVGGGTDANEQFSRVIQRQISGAGGGILKKSNGKDTSEIIHHHPLFVKDTSKYWYKPTISREQAINMLRDKPPGTFVVRDSNSFPGAFGLALKVSTPPPGVNPGDGSELVRHFLIEPSPKGVKLKGCNNEPVFGSLSALVYQHSITALALPTKLVLPDFDPAATPEHLSATQALLEQGAACNVVYVGSVDVESLTGNECVKRSIATCSQRAINGDSRAVSVHFKVSSQGVTLTDNTRKVFFRRHFNVQSVIFAGMDPIERRFENTRALGFHDGCIAQARLFAFVARIPSSSENACHVFAELEPEQPGSAVVNFINKVMLAQKNRS”: the “soluble on expression in E. coli” value is “not soluble”.

In the case of “MLIANEVYHALNLEEVWFLPNQIPPHKQGRDITSVESRLQMLELATEAEEHFSICLEELSRKGPSYTYDTMLQLTKKYPDVQFHFIIGGDMVEYLPKWYNIEALLDLVTFVGVARPGYKLRTPYPITTVEIPEFAVSSSLLRERYKEKKTCKYLLPEKVQVYIERNGLYES”, the “soluble on expression in E. coli” value was “not soluble”. With “MKAAAREEAKNIKLLETTEEDKQKNFLFLRLWDRNMDIAMGWKGAQAMQFGQPLVFDMAYENYMKRKELQNTVSQLLESEGWNRRNVDPFHIYFCNLKIDGALHRELVKRYQEKWDKLLLTSTEKSHVDLFPKDSIIYLTADSPNVMTTFRHDKVYVIGSFVDKSMQPGTSLAKAKRLNLATECLPLDKYLQWEIGNKNLTLDQMIRILLCLKNNGNWQEALQFVPKRKHTGFLEISQHSQEFINRLKKAKT”, the “soluble on expression in E. coli” value is on record as “not soluble”.

On to “MGSDKIHHHHHHMDYLDIGQAADNKYYSSKRTLPLAIMKENAKEYQPLKINTIKTCSCKENNLNCLTAKEWIKRQIGVWEFYYEKRDIRDKTVHPATFPISLAKQVIELFSHEGELVVDPFVGSGTTLVAARDSNRNAVGFDLQEKYIKLCAERLSTQRIVGNAQQVAIEEDARNISNYFNEESISLIFTSPPYANLLNRERKNKSRRNRKNNQLGKVEQYSQDPRDLGTLDVESYTKEMGDIFEKVKPALRTKGHCVINVPDMWWENKRIAIHVYLINEMTKRGYELRNIIIWDKRNLVNQIGIFGWPSNYITMGVTFEYLLDFWKP”, for which the “soluble on expression in E. coli” value is recorded as “not soluble”. Next, “MGSDKIHHHHHHMRLDHLRLQNFRCYEDAHFDFQPGFNLVVGVNGSGKTSLLLGVAECLIPYGNAMGQGQEILSKEDVRFVIDRHEGRSRFERKFPVFIRADGDIFDLPNWRAVRLLEPWEGGVDPSSLSHLSAVLARNNAGEQIDFPVLAFYRANRRWSSARISAEFAAQQRTSRFDGYANWFDAVADLRDFESWLIARTLERLQDRLDSTPTVEREDELEWVNRAIRLAIPDAHDLRYDLRLQSLLVDMGEGNAVPFHELSDGQRSLIALIADIARRMCVLNPHIGKDVLANTGGIVIIDELDIHLHPAWQRNIAPTLKKAFPKVQFIATSHSPQVIGSLQPGEVILLKNGDSSHPRATYGLDSSTILEEVMGVPQREPEIEVLLDELFSTLENNELEKARLQLDALKKKAPDLPEFAGAEALLKRKELIGR”: “not soluble”; “MAHHHHHHMPPKGFKSNVSPEEAIAARKEKVELLSQQCAAVEKMLSICTDQGLRLNAEIAELERRIAETEVLTEQASRDLDVTVKIVTSYATSNLDQLQQRRLNMEKTAHEAEAENEALRAKIAELTGRREAEIEQWEARVEEQQALMNQKALDFGMQLKETLARRYATV”: “not soluble”.
